From article doi:10.1101/192484 (bioRxiv, 2018)
Residue numbers refer to the chain shown, from its start. Numbers in names are those of the source. Read-outs that look alike come from different tables or passages of the source.

B1: ATL3 22-442 WT (soluble domain: GTPase domain, linker and 3HB middle domain) (domain or fragment, human, UniProt Q6DD88 22-442, looked up)
chain: SKPGPVQVVLVQKDQHSFELDEKALASILLQDHIRDLDVVVVSVAGAFRKGKSFILDFMLRYLYSQKESGHSNWLGDPEEPLTGFSWRGGSDPETTGIQIWSEVFTVEKPGGKKVAVVLMDTQGAFDSQSTVKDCATIFALSTMTSSVQIYNLSQNIQEDDLQQLQLFTEYGRLAMDEIFQKPFQTLMFLVRDWSFPYEYSYGLQGGMAFLDKRLQVKEHQHEEIQNVRNHIHSCFSDVTCFLLPHPGLQVATSPDFDGKLKDIAGEFKEQLQALIPYVLNPSKLMEKEINGSKVTCRGLLEYFKAYIKIYQGEDLPHPKSMLQATAEANNLAAAASAKDIYYNNMEEVCGGEKPYLSPDILEEKHCEFKQLALDHFKKTKKMGGKDFSFRYQQELEEEIKELYENFCKHNGSKNVFSTFR
B2: ATL3 22-442 P338R (domain or fragment, human, UniProt Q6DD88 22-442, looked up)
chain: B1 chain with P317R
B3: ATL3 22-442 Y192C (domain or fragment, human, UniProt Q6DD88 22-442, looked up)
chain: B1 chain with Y171C

Key:
SEC-MALS [1] = biological target: the molecule itself; assay: SEC-MALS
SEC-MALS [2] = biological target: the molecule itself; assay: SEC-MALS; remark: listed apart in the source

Protein	stoichiometry N (SEC-MALS [1])	stoichiometry N (SEC-MALS [2])
B1	2	–
B2	–	2
B3	2	–
